Measurements from article PMC2116342 (The Journal of Cell Biology, 1990).

B1: desmin (intact chicken gizzard desmin) (natural protein, UniProt P02542 1-464, looked up)
chain: MSQSYSSSQRVSSYRRTFGGGTSPVFPRASFGSRGSGSSVTSRVYQVSRTSAVPTLSTFRTTRVTPLRTYQSAYQGAGELLDFSLADAMNQEFLQTRTNEKVELQELNDRFANYIEKVRFLEQQNALMVAEVNRLRGKEPTRVAEMYEEELRELRRQVDALTGQRARVEVERDNLLDDLQKLKQRLQEEIQLKEEAENNLAAFRADVDAATLARIDLERRIESLQEEIAFLKKVHEEEIRELQAQLQEQHIQVEMDISKPDLTAALRDIRAQYESIAAKNIAEAEEWYKSKVSDLTQAANKNNDALRQAKQEMLEYRHQIQSYTCEIDALKGTNDSLMRQMREMEERFAGEAGGYQDTIARLEEEIRHLKDEMARHLREYQDLLNVKMALDVEIATYRKLLEGEENRISIPMHQTFASALNFRETSPDQRGSEVHTKKTVMIKTIETRDGEVVSEATQQQHEVL

What was measured:
[1] = molecular target: L-desmin (desmin lacking its carboxy-terminal 27 residues) (chicken); assay: cross-linking
[2] = molecular target: the molecule itself; assay: cross-linking

Molecule	stoichiometry N [1]	stoichiometry N [2]
L-desmin (desmin lacking its carboxy-terminal 27 residues) (domain or fragment)	4	
B1		4
